From US20250339569A1 (3B PHARMACEUTICALS, published 2025)
Each block holds one binder with its values, some of them ahead of it. Starred links: 1 amine or outer side, 2 acyl side, 3 side chain; linkers in the order of their positions; H or OH if unused. Positions of bridges follow the written chain, without caps; N, C: chain ends. Non-standard residues stand in square brackets, D forms with d. Primed or numbered codes have the meaning given here. *: point of attachment. Aph(SaPr)(5) = 4-amino-L-phenylalanine acylated on the ring amine with 3-sulfamoylpropanoic acid, NS(=O)(=O)CCC(=O)Nc1ccc(C[C@H](N[*:1])C(=O)[*:2])cc1; Aph(SaPr)″ = 4-amino-L-phenylalanine, ring amine acylated with 3-sulfamoylpropanoic acid, NS(=O)(=O)CCC(=O)Nc1ccc(C[C@H](N[*:1])C(=O)[*:2])cc1; Ttds(4) = 1,13-diamino-4,7,10-trioxatridecan-succinamic acid spacer, O=C(CCC(=O)[*:2])NCCCOCCOCCOCCCN[*:1]; 111In‑DOTA = O=C([O-])CN1CCN(CC(=O)[O-])CCN(CC(=O)*)CCN(CC(=O)[O-])CC1.[111In+3]; Phe(3-NHCO(CH2)3SO2NH2) = N[C@@H](Cc1cccc(NC(=O)CCCS(N)(=O)=O)c1)C(=O)O; APAc″ = 2-(4-(amino)piperidin-1-yl)acetic acid, NC1CCN(CC(=O)*)CC1; DOTA = O=C(O)CN1CCN(CC(=O)O)CCN(CC(=O)*)CCN(CC(=O)O)CC1; Biotin = O=C1N[C@H]2[C@H](CS[C@H]2CCCCC(=O)*)N1; PPAc = 4-carboxymethyl piperazine linker; mXylylene = c1cc(C[*:1])cc(C[*:2])c1; Cy5SO3 = Cy5 dye with one sulfonate; Sni = not defined here

Key:
[1] = molecular target: T1, murine carbonic anhydrase 9 (CAIX) (mouse, UniProt Q8VHB5 32-437); test: radioligand binding, 111In-labeled compound, CHO cells with mouse CAIX; pKD category C: 6.1-7.0
T1 construct: On transfected CHO-VGT cells; also called mouse CAIX
T1 sequence (Q8VHB5 32-437 limits assumed): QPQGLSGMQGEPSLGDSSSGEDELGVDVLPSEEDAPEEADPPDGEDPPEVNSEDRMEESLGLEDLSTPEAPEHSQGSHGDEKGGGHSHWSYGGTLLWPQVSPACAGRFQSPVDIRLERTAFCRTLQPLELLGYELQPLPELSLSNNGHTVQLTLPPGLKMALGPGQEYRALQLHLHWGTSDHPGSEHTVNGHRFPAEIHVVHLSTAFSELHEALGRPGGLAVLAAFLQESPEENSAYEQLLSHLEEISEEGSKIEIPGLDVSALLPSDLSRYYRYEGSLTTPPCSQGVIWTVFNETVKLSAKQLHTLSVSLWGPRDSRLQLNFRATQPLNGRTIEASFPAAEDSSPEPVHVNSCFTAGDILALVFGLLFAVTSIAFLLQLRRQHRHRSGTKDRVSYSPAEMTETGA

[2] = molecular target: T2, canine carbonic anhydrase 9 (CAIX) (dog); test: radioligand binding, 111In-labeled compound, CHO cells with dog CAIX; pKD category A: >8.0
T2 construct: On transfected CHO-VGT cells; also called dog CAIX
T2 sequence (chain, as listed by the source limits assumed): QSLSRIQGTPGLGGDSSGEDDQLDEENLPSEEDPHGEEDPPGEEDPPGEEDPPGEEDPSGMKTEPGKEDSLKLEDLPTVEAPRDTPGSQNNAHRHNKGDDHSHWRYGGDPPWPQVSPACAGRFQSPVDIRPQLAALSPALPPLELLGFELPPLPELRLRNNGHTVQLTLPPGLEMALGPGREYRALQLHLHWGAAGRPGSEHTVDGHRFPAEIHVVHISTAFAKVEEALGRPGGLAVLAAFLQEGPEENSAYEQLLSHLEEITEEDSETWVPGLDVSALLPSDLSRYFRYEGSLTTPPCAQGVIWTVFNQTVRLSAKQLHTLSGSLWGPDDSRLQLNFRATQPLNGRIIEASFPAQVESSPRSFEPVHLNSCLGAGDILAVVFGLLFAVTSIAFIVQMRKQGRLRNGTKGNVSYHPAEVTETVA
Protocol: (§4) CHO-VGT cells were transfected with the human, dog, and mouse CAIX (InSCREENex GmbH) and cultured in Ham's F-12 medium (Sigma-Aldrich #N4888) supplemented with 10% fetal bovine serum (FCS), 2 mM L-glutamine, 100 U/mL Penicillin, and 0.1 mg/mL streptomycin. […] Cell concentrations were adjusted to 3×10⁵ mL⁻¹, and 1.000 μL of the suspension per well were dispensed into flat-clear-bottom 24 well plates.
(§5) Approximately 24 hours after re-seeding, the medium was aspirated and the cells were washed once with 1000 μL assay medium (Ham's medium without additives). To determine total binding, 700 μL of assay medium and 100 μL of the radioligand dilutions were added to the wells in triplicates. To determine non-specific binding, 600 μL of binding medium, 100 μL of the radioligand dilutions and 100 μL of a blocking solution containing 8 μM non-labeled compound were added to the wells in triplicates. […] An aliquot of each radioligand dilution was included in the gamma counter measurements to allow for determination of their actual concentrations via their known specific activity.

[3] = molecular target: T3, human carbonic anhydrase IX (CAIX) (human, UniProt Q16790 38-459); test: radioligand binding, 111In-labeled compound, CHO cells with human CAIX; pKD category A: >8.0
Protocol: as §4, §5

[4] = molecular target: T4, human carbonic anhydrase 9 (CAIX) (human, UniProt Q16790 38-459); test: FACS binding assay on CAIX-expressing HT-29 cells, Cy5-labeled compound; pEC50 category (A = pEC50 >8.0)
Protocol: (§1) CAIX-expressing human HT-29 colorectal cancer cells (DSMZ, RRID: CVCL_0320) were cultured in McCoys's 5A modified medium (Biochrom, #F1015) including 10% fetal calf serum (FCS), 2 mM L-glutamine, 100 U/ml penicillin and 100 μg/mL streptomycin. Cells were detached with Accutase (Biolegend, #423201) and washed in FACS buffer (PBS including 1% FCS). Cells were diluted in FACS buffer to a final concentration of 500.000 cells per ml. 200 μL of the cell suspension were transferred to a u-shaped non-binding 96-well plate (Greiner) and cells were washed in ice-cold FACS buffer.
(§2) When biotinylated compounds were used an additional incubation step with 1 μg/mL APC-Streptavidin (Miltenyi; #130-106-791) in 50 μL FACS buffer for 30 minutes on ice was performed.
(§3) Cells were washed twice with ice-cold FACS buffer and analyzed in an Attune NxT flow cytometer (Thermo Fisher). Median fluorescence intensities (MFI) of the APC/Cy5-channel were calculated by Attune NxT software.

[5] = molecular target: T1, murine carbonic anhydrase 9 (CAIX); test: radioligand binding, 111In-labeled compound, CHO cells with mouse CAIX; pKD category B: 7.1-8.0
[6] = molecular target: T4, human carbonic anhydrase 9 (CAIX); test: FACS binding assay on CAIX-expressing HT-29 cells, biotinylated compound detected with APC-streptavidin; pEC50 category (B = pEC50 between 7.1 and 8.0)
Protocol: as §1, §2, §3

[7] = molecular target: T5, canine carbonic anhydrase 9 (CAIX) (dog); test: radioligand saturation binding on CHO cells with dog CAIX, 8 h at 37 C
T5 construct: also called dog CAIX; dgCAIX
T5 sequence (chain, as listed by the source limits assumed): as above
Protocol: (§6) The radioligand saturation binding on CHO-huCAIX and dgCAIX was determined as follows. […] To determine total binding, 700 μL of binding medium and 100 μL of the radioligand dilutions were added to the wells in triplicates. […] The plates were incubated for 8 h at 37° C. under standard cell culture conditions (5% CO2). At the end of the incubation time the plates were placed on ice while aspirating the radioligand solutions. Aliquots of the 20 nM supernatants were transferred to HPLC vials for analysis of radioligand stability over the incubation time. Subsequently, the cells were washed with ice-cold PBS (0.5 mL, 1 mL, 1 mL). 300 μL of RIPA buffer containing PIC was added to each well and the plates were placed on a shaker for 10 min at ambient temperature. 200 μL of the cell lysate of each well was transferred to gamma-counting tubes. Their associated radioactivity was counted using a gamma counter and normalized to the measured protein concentration of each well (see chapter 6.3.7 BCA protein assay). An aliquot of each radioligand dilution was included in the gamma counter measurements to allow for determination of the actual radioligand concentrations in the dilution series.

[8] = molecular target: T3, human carbonic anhydrase IX (CAIX); test: FACS competition, HT-29 cells, tracer printed 3BP-414 (probably 3BP-4149); pIC50 category B: 7.1-8.0
Protocol: as §1, §2, §3

[9] = molecular target: T6, Fc-fusion protein of human carbonic anhydrase IX (human, UniProt Q16790 38-414); test: SPR, captured hCAIX-Fc; t1/2 category A: >15.0 min
[10] = molecular target: T6, Fc-fusion protein of human carbonic …; test: SPR, captured hCAIX-Fc; pKD category A: >8.0
[11] = molecular target: T7, canine carbonic anhydrase 9 (CAIX) (dog); test: radioligand saturation binding on CHO-dgCAIX cells, 8 h at 37 °C, experiment ii
T7 construct: Expressed on transfected CHO cells (CHO-dogCA9); also called dgCAIX; dog CAIX
T7 sequence (chain, as listed by the source limits assumed): as above
Protocol: as §6

Binder: {111In‑DOTA-APAc″}-VYCE[dP]DWLTWSC-NH2 (linker 3-12 via mXylylene, also called 3BP-3583 (111In-labeled)) [111In-3BP-3583]
- pKD [1]: 6.1 to 7 pkd
- pKD [2]: > 8 pkd
- pKD [3]: > 8 pkd

Binder: {111In‑DOTA}-QCE[dP]D[Aph(SaPr)(5)]LTWSC-NH2 (linker 2-11 via mXylylene, also called [111In]In-DPI-4501) [111In-3BP-4501]
- pKD [5]: 7.1 to 8 pkd
- pKD [2]: > 8 pkd

Binder: {DOTA-Sni}-YCE[dP]D[Phe(3-NHCO(CH2)3SO2NH2)]LTWSC-NH2 (linker 2-11 via mXylylene; reading uncertain) [3BP-4454]
- pIC50 [8]: 7.1 to 8 pic50
- t1/2 (half-life of the complex, SPR) [9]: > 15 min
- pKD [10]: > 8 pkd

Binder: {111In‑DOTA-PPAc}-QCE[dP]D[Phe(3-NHCO(CH2)3SO2NH2)]LTWSC-NH2 (linker 2-11 via mXylylene, also called [111In]In-DPI-4452) [111In-3BP-4452]
- pKD [5]: 7.1 to 8 pkd
- pKD [2]: > 8 pkd

The remaining lines, values ahead:

- pEC50 [4]: > 8 pec50
Binder: {Cy5SO3-APAc″}-VYCE[dP]DWLTWSC-NH2 (linker 3-12 via mXylylene, Cyclic peptide with a fluorophore) [3BP-4149: Cy5SO3-APAc-Val-Tyr-[Cys(3MeBn)-Glu-pro-Asp-Trp-Leu-Thr-Trp-Ser-Cys]-NH2]

- pEC50 [6]: 7.1 to 8 pec50
B1: 3BP-2775: H-Met-Gln-[Cys(3MeBn)-Glu-Ile-Trp-Val-Asp-Gly-Trp-Val-Thr-Cys]-Ttds-Lys(Bio)-NH2 (peptide)
peptide: H-MQCEIWVDGWVTC[Ttds(4)]K(Biotin)-NH2
modifications: linker 3-13 via mXylylene
SMILES: CC[C@H](C)[C@@H]1NC(=O)[C@H](CCC(=O)O)NC(=O)[C@@H](NC(=O)[C@H](CCC(N)=O)NC(=O)[C@@H](N)CCSC)CSCc2cccc(c2)CSC[C@@H](C(=O)NCCCOCCOCCOCCCNC(=O)CCC(=O)N[C@@H](CCCCNC(=O)CCCC[C@@H]2SC[C@@H]3NC(=O)N[C@@H]32)C(N)=O)NC(=O)[C@H]([C@@H](C)O)NC(=O)[C@H](C(C)C)NC(=O)[C@H](Cc2c[nH]c3ccccc23)NC(=O)CNC(=O)[C@H](CC(=O)O)NC(=O)[C@H](C(C)C)NC(=O)[C@H](Cc2c[nH]c3ccccc23)NC1=O
notes: Cyclic peptide, biotinylated

- pKd [7]: ≥ 9
B2: [111In]In-DPI-4501: 111In-DOTA-Q-[C(3MeBn)-EPD-Aph(SaPr)-LTWSC]-NH2 (peptide)
peptide: {DOTA}-QCE[dP]D[Aph(SaPr)″]LTWSC-NH2
modifications: linker 2-11 via mXylylene; also: 111In complexed in DOTA
notes: also called 111In-3BP-4501; In-111-labeled DPI-4501

- pKd [11]: 9.5 -log10(M)
B3: [^111In]In-DPI-4452 (peptide)
peptide: {DOTA-PPAc}-QCE[dP]D[Phe(3-NHCO(CH2)3SO2NH2)]LTWSC-NH2
modifications: linker 2-11 via mXylylene; also: 111In complexed in DOTA
notes: Cyclic peptide with chelator DOTA complexing In-111; X stands for the non-natural residue Af3(Cpsu); also called ^111In-DOTA-PPAc-Q-[C(3MeBn)-EPD-Af3(Cpsu)-LTWSC]-NH2; ^111In-3BP-4452
